Source: publication PMC10545826

Experiments:
[1] = molecular target: human FcγRIIIa (CD16a) V158 (human); experiment: SPR; Biacore 8K; His-tagged FcγRIIIa captured (aimed 60 RU) by anti His-tag antibody on a CM5 chip; antibody samples as analytes (trastuzumab samples 360 to 22.5 nM); PBS with 0.005% Tween-20; 1:1 Langmuir global fit; temperature of the printed KD not stated (measured at 21-29 °C)
[2] = molecular target: human FcγRIIIa (CD16a) V158 (human); experiment: SPR; Biacore 8K; His-tagged FcγRIIIa captured (aimed 60 RU) by anti His-tag antibody immobilised on a CM5 chip; antibody samples as analytes (360 to 22.5 nM for the trastuzumab samples); PBS with 0.005% Tween-20; global fit, 1:1 Langmuir model; measured at 21-29 °C, the temperature of Table S1 not given
[3] = molecular target: human FcγRIIIa (CD16a) V158 (human); experiment: SPR; van't Hoff analysis of the temperature dependence of KD (21, 23, 25, 27, 29 °C), parameters at 25 °C; FcγRIIIa captured by anti His-tag antibody, antibody as analyte; PBS with 0.005% Tween-20
[4] = molecular target: human FcγRIIIa (CD16a) V158 (human); experiment: SPR
Target sequence in this assay (P08637 17-208 F176V): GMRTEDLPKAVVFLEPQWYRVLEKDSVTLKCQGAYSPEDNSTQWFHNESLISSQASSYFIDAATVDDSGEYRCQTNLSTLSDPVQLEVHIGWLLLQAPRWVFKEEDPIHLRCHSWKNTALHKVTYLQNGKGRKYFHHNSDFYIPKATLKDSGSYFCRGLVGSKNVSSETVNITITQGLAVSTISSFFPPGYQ

Substance	koff [2]	kon [2]	also measured
Rituximab (Rituxan), an anti CD20 human antibody	0.0331 s⁻¹	540000 M⁻¹ s⁻¹	Kd [1]: 61.4 nM
Trastuzumab (anti-HER2 humanized IgG1) (antibody)	0.0281 s⁻¹	550000 M⁻¹ s⁻¹	Kd [1]: 51 nM; dH [3]: -35.9 kcal/mol
afucosyl rituximab			Kd [4]: 10.9 nM
afucosyl rituximab (antibody)	0.0108 s⁻¹	990000 M⁻¹ s⁻¹	fold increase of affinity relative to rituximab [1]: 22 fold
divalent DOTA-conjugated trastuzumab			Kd [4]: 3.6 nM
divalent DOTA-conjugated trastuzumab (antibody)	0.0089 s⁻¹	2.46e+06 M⁻¹ s⁻¹	
monovalent DOTA-conjugated trastuzumab (antibody)	0.0116 s⁻¹	950000 M⁻¹ s⁻¹	Kd [2]: 12.2 nM
